This is an account of results in the supplement of paper PMC10567573.

± gives the standard deviation.

The data set is described as follows: protein stability index of a GFP-peptide fusion (GPS, HEK-293T) (PSI 1-6); higher = more stable. As to conditions: c terminus: a fixed tail appended.
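Note: 24-mer peptide tiles fused after GFP, lentivirally expressed, FACS-sorted into six equal bins by GFP/DsRed ratio, decoded by Illumina sequencing, PSI is the read-weighted mean bin number.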

On to WGVVSHSFPATLETQEQDVDLVQK [MMP1], for which the protein stability index reads like this: (treatment: DMSO) 4.58 ± 0.34; (treatment: MLN4924 1 uM, 8 h) 4.73 ± 0.43.

For VTSQQEPQIPVDRGSETTYESSAD [TAF7L], the protein stability index is, setting by setting: (treatment: DMSO) 5.21 ± 0.25; (treatment: MLN4924 1 uM, 8 h) 5.52 ± 0.23.

Take SNGVEMAAKFPSGSQRARVVNTDH [SDE2]: the protein stability index (treatment: DMSO) was determined as 4.59 ± 0.2 and the protein stability index (treatment: MLN4924 1 uM, 8 h) was 4.58 ± 0.26.

For MGKSASKQFHNEVLKAHNEYRQKH [GLIPR2], the protein stability index by setting is: (treatment: DMSO) 3.94 ± 0.27; (treatment: MLN4924 1 uM, 8 h) 3.96 ± 0.28.

For EVKIEEPVSMEMDNHMSDKDESCY [INTS3], the protein stability index reads like this: (treatment: DMSO) 5.31 ± 0.37; (treatment: MLN4924 1 uM, 8 h) 5.37 ± 0.19.

With KGKAGRVDLVDESGYVSGYKHAGT [TPPP], the protein stability index was 4.32 ± 0.12 (treatment: DMSO) and 4.57 ± 0.18 (treatment: MLN4924 1 uM, 8 h).

In the case of EELVARSETHAAGHSQEKTHSREK [CHGB], the protein stability index stood at 5.66 ± 0.28 (treatment: DMSO) and 5.47 ± 0.5 (treatment: MLN4924 1 uM, 8 h).

For PNPPTLQEAGLSHTEVLFVQDLTD [FAF2], the protein stability index worked out at 4.54 ± 0.27 (treatment: DMSO) and 4.64 ± 0.16 (treatment: MLN4924 1 uM, 8 h).

For the sequence GPPGSPGRAGAVGTPGERGPPGPP [EMID1], the protein stability index reads like this: (treatment: DMSO) 5.32 ± 0.84; (treatment: MLN4924 1 uM, 8 h) 4.81 ± 0.84.

Consider FDTNAEGCILQWKKIYCRICMAQI [ZBED1], for which the protein stability index is 2.39 ± 0.65 (treatment: DMSO) and 2.04 ± 0.079 (treatment: MLN4924 1 uM, 8 h).

As to LPDAGSGRQPALRPHVHKQTEKTT [ISL2], the protein stability index runs as follows: (treatment: DMSO) 5.26 ± 0.22; (treatment: MLN4924 1 uM, 8 h) 5.04 ± 0.23.

For the sequence HSGEKPFICKECGKAYGWCSELIR [ZNF232], the protein stability index is 2.22 ± 0.25 (treatment: DMSO) and 2.72 ± 0.66 (treatment: MLN4924 1 uM, 8 h).

For the sequence SIMEMQAMEVNTSASEILYSAPPG [NFE2L1], the protein stability index runs as follows: (treatment: DMSO) 3.81 ± 0.33; (treatment: MLN4924 1 uM, 8 h) 3.94 ± 0.28.

For EILPFLYLGSAYHASKCEFLANLH [DUSP5], the protein stability index is 2.94 ± 0.5 (treatment: DMSO) and 2.92 ± 0.75 (treatment: MLN4924 1 uM, 8 h).

With AEVSWEPGRREGCDICAGKAGCPI [RPS21], the protein stability index is, setting by setting: (treatment: DMSO) 3.29 ± 0.31; (treatment: MLN4924 1 uM, 8 h) 3.89 ± 0.26.

As for YDRVAQLDQLLHYRKKSAEFPDFY [CHGB], the protein stability index came to 2.72 ± 0.14 (treatment: DMSO) and 2.8 ± 0.21 (treatment: MLN4924 1 uM, 8 h).

Consider ARKAMRNGISPIIIDNTNLHAWEM [N4BP2L1], for which the protein stability index was found to be 2.33 ± 0.25 (treatment: DMSO) and 2.25 ± 0.42 (treatment: MLN4924 1 uM, 8 h).

Turning to DGSGMPKTMQSEETRVWHRRDGKW [CAMK2D], the protein stability index is, setting by setting: (treatment: DMSO) 4.49 ± 0.35; (treatment: MLN4924 1 uM, 8 h) 4.59 ± 0.095.

PQYAERLLSGAFKKRRLPPVHIHP [FOXJ1] yielded a protein stability index (treatment: DMSO) of 2.76 ± 0.22 and a protein stability index (treatment: MLN4924 1 uM, 8 h) of 2.9 ± 0.1.

Sequence LGANEVLLVVGGFGSQQSPIDVVE [KLHL12] yielded a protein stability index (treatment: DMSO) of 2.27 ± 0.28 and a protein stability index (treatment: MLN4924 1 uM, 8 h) of 2.25 ± 0.85.

NYTATVRGLRGPNLTSPASITFTT [TNXB] came in with a protein stability index (treatment: DMSO) of 2.66 ± 0.23 and a protein stability index (treatment: MLN4924 1 uM, 8 h) of 2.79 ± 0.41.

The sequence ATRSTTQSNRTSRLIGKKMNRSVS [WEE1] gave a protein stability index (treatment: DMSO) of 4.27 ± 0.28 and a protein stability index (treatment: MLN4924 1 uM, 8 h) of 4.21 ± 0.3.

Take QENQARTHVLSKEVQHLREEKSKQ [LRRC45]: the protein stability index (treatment: DMSO) was 5.2 ± 0.29 and the protein stability index (treatment: MLN4924 1 uM, 8 h) was determined as 5.36 ± 0.29.

Take TGYLSSMVGLILGPFGVNHGVELH [PCMTD2]: the protein stability index is 3.17 ± 0.31 (treatment: DMSO) and 2.78 ± 0.4 (treatment: MLN4924 1 uM, 8 h).

As for EDHKPGTFPKALTNGSFSPSGNNG [DLC1], the protein stability index (treatment: DMSO) was found to be 4.89 ± 0.11 and the protein stability index (treatment: MLN4924 1 uM, 8 h) is 4.91 ± 0.37.

Turning to IVEVLGIPPAAMLDQAPKARKYFE [DYRK1B], the protein stability index was found to be 2.65 ± 0.42 (treatment: DMSO) and 2.93 ± 0.14 (treatment: MLN4924 1 uM, 8 h).

In turn, SLLLKKPLRVDLILENTSKVPAPK [NOP53] came in with a protein stability index (treatment: DMSO) of 2.81 ± 0.16 and a protein stability index (treatment: MLN4924 1 uM, 8 h) of 2.98 ± 0.15.

On to HLEVKFMNPYNAVLTKKFQVTMRG [FBXO39], for which the protein stability index (treatment: DMSO) worked out at 2.17 ± 0.22 and the protein stability index (treatment: MLN4924 1 uM, 8 h) worked out at 2.28 ± 0.22.

As for SAAGIEARSRALRRRWCPAGIMLL [SPACA3], the protein stability index is, setting by setting: (treatment: DMSO) 2.3 ± 0.11; (treatment: MLN4924 1 uM, 8 h) 2.38 ± 0.15.

WLVHRDPEGSVSGSQPNSGLALES [NFE2L1]: the protein stability index worked out at 3.78 ± 0.31 (treatment: DMSO) and 3.97 ± 0.12 (treatment: MLN4924 1 uM, 8 h).

Regarding SWEEGMKVFEELLLDADWSINAGS [CRY1], the protein stability index reads like this: (treatment: DMSO) 2.84 ± 0.22; (treatment: MLN4924 1 uM, 8 h) 2.89 ± 0.33.

Turning to CGRAFSRKSLLVVHQRTHTGEKPH [ZNF649], the protein stability index turned out to be 2.69 ± 0.26 (treatment: DMSO) and 2.64 ± 0.093 (treatment: MLN4924 1 uM, 8 h).

Take WTHVTLLIVVTQSHLVIHNLFEGM [CDS2]: the protein stability index reads like this: (treatment: DMSO) 3.22 ± 0.23; (treatment: MLN4924 1 uM, 8 h) 3.34 ± 0.35.

The sequence ETVDLVLKLKNKLLQADREHLPVK [DENND6A] yielded a protein stability index (treatment: DMSO) of 2.86 ± 0.41 and a protein stability index (treatment: MLN4924 1 uM, 8 h) of 2.72 ± 0.38.

DLMKRLRFALIPAPELVERVQSVD [KLHL14]: the protein stability index (treatment: DMSO) is 2.16 ± 0.14 and the protein stability index (treatment: MLN4924 1 uM, 8 h) was found to be 2.3 ± 0.21.

Take EEPCSPGLLQDQGSGLSSRFEEPK [CBY2]: the protein stability index was 5.4 ± 0.19 (treatment: DMSO) and 5.29 ± 0.34 (treatment: MLN4924 1 uM, 8 h).

On to MPNVMTGTMGMAPLGNTPMMNQSM [CLINT1], for which the protein stability index (treatment: DMSO) turned out to be 3.68 ± 0.23 and the protein stability index (treatment: MLN4924 1 uM, 8 h) worked out at 3.48 ± 0.27.
